The target of assay [1] is T1, EGFR-L858R (Homo sapiens, UniProt P00533, L858R).
T1 construct: with the advantage of testing full-length integral membrane proteins; (GGGGS)2 linker-Cub (human ubiquitin aa 35-76)-GAL4(1-147)-mNFkB(364-550) (C); expressed in transfected cells
The assay can be described thus: MaMTH EGFR-interactor screen, lentiviral preys against EGFR-L858R bait (interaction score). The conditions noted are these: MaMTH interaction score of prey with EGFR-L858R bait. The class given is cell-based. Put shortly:
(§1)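 5×GAL4UAS-luciferase HEK293T reporter cells were lentivirally infected with preys (MOI ~0.3-0.4) and puromycin-selected ≥48 h. They were then transfected in triplicate with the EGFR bait, and luciferase was read 24 h later. Score is fold-change over averaged negative-control preys; >1 denotes interaction.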

The target of assay [2] is T2, EGFR-Wt (Homo sapiens, UniProt P00533).
T2 construct: with the advantage of testing full-length integral membrane proteins; (GGGGS)2 linker-Cub (human ubiquitin aa 35-76)-GAL4(1-147)-mNFkB(364-550) (C); expressed in transfected cells
Description: MaMTH EGFR-interactor screen, lentiviral preys against EGFR-wildtype bait (interaction score). The conditions noted are these: MaMTH interaction score of prey with EGFR-Wt bait, mean. The class given is cell-based. Put shortly:
as §1

The test system of assay [3] is EGFR-Wt. The assay is described as above. The class given is cell-based, human. The settings on record: ratio of EGFR-Wt mean to EGFR-L858R mean interaction score. Put shortly:
as §1

B1: MED28 (protein, UniProt Q9H204 1-178, looked up)
Mediator of RNA polymerase II …: MAAPLGGMFSGQPPGPPQAPPGLPGQASLLQAAPGAPRPSSSTLVDELESSFEACFASLVSQDYVNGTDQEEIRTGVDQCIQKFLDIARQTECFFLQKRLQLSVQKPEQVIKEDVSELRNELQRKDALVQKHLTKLRHWQQVLEDINVQHKKPADIPQGSLAYLEQASANIPAPLKPT
Consider B1, for which the EGFR-L858R mean in assay [1] amounted to 1.14. The same molecule yielded an EGFR-Wt mean in assay [2] of 0.87. Also, in assay [3], the Wt/L858R is listed as 0.76.

B2: LYN (protein, UniProt P07948 2-512, looked up)
Tyrosine-protein kinase Lyn: GCIKSKGKDSLSDDGVDLKTQPVRNTERTIYVRDPTSNKQQRPVPESQLLPGQRFQTKDPEEQGDIVVALYPYDGIHPDDLSFKKGEKMKVLEEHGEWWKAKSLLTKKEGFIPSNYVAKLNTLETEEWFFKDITRKDAERQLLAPGNSAGAFLIRESETLKGSFSLSVRDFDPVHGDVIKHYKIRSLDNGGYYISPRITFPCISDMIKHYQKQADGLCRRLEKACISPKPQKPWDKDAWEIPRESIKLVKRLGAGQFGEVWMGYYNNSTKVAVKTLKPGTMSVQAFLEEANLMKTLQHDKLVRLYAVVTREEPIYIITEYMAKGSLLDFLKSDEGGKVLLPKLIDFSAQIAEGMAYIERKNYIHRDLRAANVLVSESLMCKIADFGLARVIEDNEYTAREGAKFPIKWTAPEAINFGCFTIKSDVWSFGILLYEIVTYGKIPYPGRTNADVMTALSQGYRMPRVENCPDELYDIMKMCWKEKAEERPTFDYLQSVLDDFYTATEGQYQQQP
Turning to B2, the EGFR-L858R mean in assay [1] is on record as 9.74. Besides, the EGFR-Wt mean in assay [2] came out at 6.92. For the same molecule, the Wt/L858R in assay [3] was determined as 0.71.

B3: BCAR3 (protein, UniProt O75815 2-825, looked up)
Breast cancer anti-estrogen …: AAGKFASLPRNMPVNHQFPLASSMDLLSSRSPLAEHRPDAYQDVSIHGTLPRKKKGPPPIRSCDDFSHMGTLPHSKSPRQNSPVTQDGIQESPWQDRHGETFTFRDPHLLDPTVEYVKFSKERHIMDRTPEKLKKELEEELLLSSEDLRSHAWYHGRIPRQVSENLVQRDGDFLVRDSLSSPGNFVLTCQWKNLAQHFKINRTVLRLSEAYSRVQYQFEMESFDSIPGLVRCYVGNRRPISQQSGAIIFQPINRTVPLRCLEEHYGTSPGQAREGSLTKGRPDVAKRLSLTMGGVQAREQNLPRGNLLRNKEKSGSQPACLDHMQDRRALSLKAHQSESYLPIGCKLPPQSSGVDTSPCPNSPVFRTGSEPALSPAVVRRVSSDARAGEALRGSDSQLCPKPPPKPCKVPFLKVPSSPSAWLNSEANYCELNPAFATGCGRGAKLPSCAQGSHTELLTAKQNEAPGPRNSGVNYLILDDDDRERPWEPAAAQMEKGQWDKGEFVTPLLETVSSFRPNEFESKFLPPENKPLETAMLKRAKELFTNNDPKVIAQHVLSMDCRVARILGVSEEMRRNMGVSSGLELITLPHGHQLRLDIIERHNTMAIGIAVDILGCTGTLEDRAATLSKIIQVAVELKDSMGDLYSFSALMKALEMPQITRLEKTWTALRHQYTQTAILYEKQLKPFSKLLHEGRESTCVPPNNVSVPLLMPLVTLMERQAVTFEGTDMWEKNDQSCEIMLNHLATARFMAEAADSYRMNAERILAGFQPDEEMNEICKTEFQMRLLWGSKGAQVNQTERYEKFNQILTALSRKLEPPPVKQAEL
In turn, B3 gave an EGFR-L858R mean in assay [1] of 1.06. Moreover, in assay [2], the EGFR-Wt mean stood at 0.79. The Wt/L858R in assay [3] was 0.75.

B4: PTPN18 (protein, UniProt Q99952 1-460, looked up)
Tyrosine-protein phosphatase …: MSRSLDSARSFLERLEARGGREGAVLAGEFSDIQACSAAWKADGVCSTVAGSRPENVRKNRYKDVLPYDQTRVILSLLQEEGHSDYINGNFIRGVDGSLAYIATQGPLPHTLLDFWRLVWEFGVKVILMACREIENGRKRCERYWAQEQEPLQTGLFCITLIKEKWLNEDIMLRTLKVTFQKESRSVYQLQYMSWPDRGVPSSPDHMLAMVEEARRLQGSGPEPLCVHCSAGCGRTGVLCTVDYVRQLLLTQMIPPDFSLFDVVLKMRKQRPAAVQTEEQYRFLYHTVAQMFCSTLQNASPHYQNIKENCAPLYDDALFLRTPQALLAIPRPPGGVLRSISVPGSPGHAMADTYAVVQKRGAPAGAGSGTQTGTGTGTGARSAEEAPLYSKVTPRAQRPGAHAEDARGTLPGRVPADQSPAGSGAYEDVAGGAQTGGLGFNLRIGRPKGPRDPPAEWTRV
B4 came in with an EGFR-L858R mean in assay [1] of 2.18. For the same molecule, the EGFR-Wt mean in assay [2] is 1.54. The Wt/L858R in assay [3] stood at 0.71.

B5: PTK2 (protein, UniProt Q05397 2-1052, looked up)
Focal adhesion kinase 1: AAAYLDPNLNHTPNSSTKTHLGTGMERSPGAMERVLKVFHYFESNSEPTTWASIIRHGDATDVRGIIQKIVDSHKVKHVACYGFRLSHLRSEEVHWLHVDMGVSSVREKYELAHPPEEWKYELRIRYLPKGFLNQFTEDKPTLNFFYQQVKSDYMLEIADQVDQEIALKLGCLEIRRSYWEMRGNALEKKSNYEVLEKDVGLKRFFPKSLLDSVKAKTLRKLIQQTFRQFANLNREESILKFFEILSPVYRFDKECFKCALGSSWIISVELAIGPEEGISYLTDKGCNPTHLADFTQVQTIQYSNSEDKDRKGMLQLKIAGAPEPLTVTAPSLTIAENMADLIDGYCRLVNGTSQSFIIRPQKEGERALPSIPKLANSEKQGMRTHAVSVSETDDYAEIIDEEDTYTMPSTRDYEIQRERIELGRCIGEGQFGDVHQGIYMSPENPALAVAIKTCKNCTSDSVREKFLQEALTMRQFDHPHIVKLIGVITENPVWIIMELCTLGELRSFLQVRKYSLDLASLILYAYQLSTALAYLESKRFVHRDIAARNVLVSSNDCVKLGDFGLSRYMEDSTYYKASKGKLPIKWMAPESINFRRFTSASDVWMFGVCMWEILMHGVKPFQGVKNNDVIGRIENGERLPMPPNCPPTLYSLMTKCWAYDPSRRPRFTELKAQLSTILEEEKAQQEERMRMESRRQATVSWDSGGSDEAPPKPSRPGYPSPRSSEGFYPSPQHMVQTNHYQVSGYPGSHGITAMAGSIYPGQASLLDQTDSWNHRPQEIAMWQPNVEDSTVLDLRGIGQVLPTHLMEERLIRQQQEMEEDQRWLEKEERFLKPDVRLSRGSIDREDGSLQGPIGNQHIYQPVGKPDPAAPPKKPPRPGAPGHLGSLASLSSPADSYNEGVKLQPQEISPPPTANLDRSNDKVYENVTGLVKAVIEMSSKIQPAPPEEYVPMVKEVGLALRTLLATVDETIPLLPASTHREIEMAQKLLNSDLGELINKMKLAQQYVMTSLQQEYKKQMLTAAHALAVDAKNLLDVIDQARLKMLGQTRPH
In assay [1], B5 displayed an EGFR-L858R mean of 5.59. In addition, the EGFR-Wt mean in assay [2] was determined as 4.05. In assay [3], the Wt/L858R was 0.72.

B6: SLA2 (protein, UniProt Q9H6Q3 2-261, looked up)
Src-like-adapter 2: GSLPSRRKSLPSPSLSSSVQGQGPVTMEAERSKATAVALGSFPAGGPAELSLRLGEPLTIVSEDGDWWTVLSEVSGREYNIPSVHVAKVSHGWLYEGLSREKAEELLLLPGNPGGAFLIRESQTRRGSYSLSVRLSRPASWDRIRHYRIHCLDNGWLYISPRLTFPSLQALVDHYSELADDICCLLKEPCVLQRAGPLPGKDIPLPVTVQRTPLNWKELDSSLLFSEAATGEESLLSEGLRESLSFYISLNDEAVSLDDA
The molecule B6 displayed an EGFR-L858R mean in assay [1] of 3.11. The molecule also yielded an EGFR-Wt mean in assay [2] of 2.22. The Wt/L858R in assay [3] worked out at 0.71.

B7: TXN (protein, UniProt P10599 2-105, looked up)
Thioredoxin: VKQIESKTAFQEALDAAGDKLVVVDFSATWCGPCKMIKPFFHSLSEKYSNVIFLEVDVDDCQDVASECEVKCMPTFQFFKKGQKVGEFSGANKEKLEATINELV
For B7, the EGFR-L858R mean in assay [1] is given as 7.03. In assay [2], the EGFR-Wt mean is listed as 5.10. Further, in assay [3], the Wt/L858R was determined as 0.73.

B8: WASL (protein, UniProt O00401 2-505, looked up)
Actin nucleation-promoting …: SSVQQQPPPPRRVTNVGSLLLTPQENESLFTFLGKKCVTMSSAVVQLYAADRNCMWSKKCSGVACLVKDNPQRSYFLRIFDIKDGKLLWEQELYNNFVYNSPRGYFHTFAGDTCQVALNFANEEEAKKFRKAVTDLLGRRQRKSEKRRDPPNGPNLPMATVDIKNPEITTNRFYGPQVNNISHTKEKKKGKAKKKRLTKADIGTPSNFQHIGHVGWDPNTGFDLNNLDPELKNLFDMCGISEAQLKDRETSKVIYDFIEKTGGVEAVKNELRRQAPPPPPPSRGGPPPPPPPPHNSGPPPPPARGRGAPPPPPSRAPTAAPPPPPPSRPSVAVPPPPPNRMYPPPPPALPSSAPSGPPPPPPSVLGVGPVAPPPPPPPPPPPGPPPPPGLPSDGDHQVPTTAGNKAALLDQIREGAQLKKVEQNSRPVSCSGRDALLDQIRQGIQLKSVADGQESTPPTPAPTSGIVGALMEVMQKRSKAIHSSDEDEDEDDEEDFEDDDEWED
For the molecule B8, the EGFR-L858R mean in assay [1] came to 1.93. In assay [2], this molecule registered an EGFR-Wt mean of 1.41. Also, the Wt/L858R in assay [3] was determined as 0.73.

B9: CRKL (protein, UniProt P46109 1-303, looked up)
Crk-like protein: MSSARFDSSDRSAWYMGPVSRQEAQTRLQGQRHGMFLVRDSSTCPGDYVLSVSENSRVSHYIINSLPNRRFKIGDQEFDHLPALLEFYKIHYLDTTTLIEPAPRYPSPPMGSVSAPNLPTAEDNLEYVRTLYDFPGNDAEDLPFKKGEILVIIEKPEEQWWSARNKDGRVGMIPVPYVEKLVRSSPHGKHGNRNSNSYGIPEPAHAYAQPQTTTPLPAVSGSPGAAITPLPSTQNGPVFAKAIQKRVPCAYDKTALALEVGDIVKVTRMNINGQWEGEVNGRKGLFPFTHVKIFDPQNPDENE
B9 came in with an EGFR-L858R mean in assay [1] of 13.65. In assay [2], this molecule came in with an EGFR-Wt mean of 10.25. Further, the Wt/L858R in assay [3] was 0.75.

The values are drawn from patent publication US9958461B2, “Detection of protein to protein interactions” (THE GOVERNING COUNCIL OF THE UNIVERSITY OF TORONTO, priority 2013, dated 2018).
